B1: recombinant human CLEC10A, extracellular domain (R&D Systems) (receptor, UniProt Q8IUN9 61-316, looked up)
chain: QNSKFQRDLVTLRTDFSNFTSNTVAEIQALTSQGSSLEETIASLKAEVEGFKQERQAGVSELQEHTTQKAHLGHCPHCPSVCVPVHSEMLLRVQQLVQDLKKLTCQVATLNNNASTEGTCCPVNWVEHQDSCYWFSHSGMSWAEAEKYCQLKNAHLVVINSREEQNFVQKYLGSAYTWMGLSDPEGAWKWVDGTDYATGFQNWKPGQPDDWQGHGLGGGEDCAHFHPDGRWNDDVCQRPYHWVCEAGLGQTSQESH
notes: extracellular domain; also called macrophage Gal-type lectin; CD301
B2: mouse MGL1 (CLEC10A orthologous mouse receptor protein) (receptor, UniProt P49300 57-304, looked up)
chain: QNSQLRRDLGTLRATLDNTTSKIKAEFQSLDSRADSFEKGISSLKVDVEDHRQELQAGRDLSQKVTSLESTVEKREQALKTDLSDLTDHVQQLRKDLKALTCQLANLKNNGSEVACCPLHWTEHEGSCYWFSESEKSWPEADKYCRLENSHLVVVNSLEEQNFLQNRLANVVSWIGLTDQNGPWRWVDGTDFEKGFKNWAPLQPDNWFGHGLGGGEDCAHITTGGPWNDDVCQRTFRWICEMKLAKES

What was measured:
[1] = target: T1, purified monomeric human VWF (von Willebrand factor) (human, UniProt P04275 764-2813, limits assumed); test: SPR, CLEC10A immobilized on CM3 chip, fit of the dissociation phase alone
T1 construct: Analyte in the mobile phase in all SPR experiments; Background text says mature plasma VWF is the 2050-residue polypeptide; also called VWF monomers; monomeric VWF
Method: Interaction analysis cycles consisted of a 5 min sample injection phase. In this association phase, VWF bound to CLEC10A immobilized on the surface, and increased the surface mass. This phase was followed by a dissociation phase of 17 min in running buffer. In the dissociation phase, the sample was replaced by running buffer and the dissociated VWF was removed from the surface, resulting in a decreased surface mass. All samples were tested as repeat determination. […] Although kinetic data were analyzed using Biacore T200 Evaluation Software Version 1.0 (GE Healthcare Biosciences, Uppsala, Sweden), the data set was only used for information purpose.
SPR was predominantly used as mass detector. An interaction of VWF with CLEC10A was detected by an increase in accumulating mass and specific binding was identified by subtracting the binding response recorded from the control surface, followed by subtracting an average of the buffer blank injections. A time point was positioned 20 seconds after the end of sample injection and was evaluated as representative for a stable protein-ligand interaction, which was of interest. […] Furthermore, testing was performed at least in duplicate and the response was calculated relative to the baseline in each case. […] Moreover, dissociation rate constants (off-rate) were calculated by fitting the dissociation phase alone. […]

[2] = target: T1, purified monomeric human VWF (von …); test: SPR, MGL1 immobilized on CM3 chip, fit of the dissociation phase alone

Row | Binder | koff [1] [s⁻¹] | koff [2] [s⁻¹]
1 | B1 | 0.00051 | –
2 | B2 | – | 0.000406
